{"source": "paper PMC4231748", "about": "“Human PrimPol mutation associated with high myopia has a DNA replication defect”", "binders": {"B1": {"name": "Overhanging DNA substrate (HP-20 primer / ND-50 TemplateTT) (dsDNA)", "DNA 1": "TGTCGTCTGTTCGGTCGTTC", "DNA 2": "CGCGCAGGGCGCACAACAGCCTTGAAGACCGAACGACCGAACAGACGACA"}}, "target": "T1, PrimPolY89D1-354 (polymerase domain) (human, UniProt Q96LW4 1-354, Y89D)", "T1 sequence": "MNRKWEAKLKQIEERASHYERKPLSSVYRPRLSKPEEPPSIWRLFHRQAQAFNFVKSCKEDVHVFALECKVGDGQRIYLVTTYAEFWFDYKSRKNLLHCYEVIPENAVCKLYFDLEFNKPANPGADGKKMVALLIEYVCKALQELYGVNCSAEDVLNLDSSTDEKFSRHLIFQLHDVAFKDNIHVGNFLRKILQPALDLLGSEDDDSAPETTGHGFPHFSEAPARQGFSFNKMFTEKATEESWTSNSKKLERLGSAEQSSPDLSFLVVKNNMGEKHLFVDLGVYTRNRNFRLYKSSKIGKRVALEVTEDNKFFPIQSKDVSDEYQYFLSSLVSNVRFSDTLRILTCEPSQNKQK", "assay": "EMSA; 10 mM Mg2+; EMSA: 60 nM DNA, 10 mM Bis-Tris-Propane-HCl pH 7.0, 10 mM MgCl2, 1 mM DTT, 25 C, 60 min; 5% polyacrylamide gel in 0.5x TBE", "details": "protein: recombinant; label: 5'-Hex on strand 1 (HP-20); 20 bp duplex, 5' overhang 30 nt on template strand (S12), other end blunt"}
{"binder": "B1", "values": [{"measurement": "Kd", "result": 2550, "unit": "nM"}]}
